Assay results taken from patent US5767250, “Complexes comprising truncated CMV gH polypeptides and escort proteins” (Chiron Corporation, dated 1998).

Biological target: basic FGF (human, UniProt P09038, radioiodinated (125I) in the soluble binding assay and the radioreceptor assay)
Experiment: soluble binding assay: EC-FGF receptor on concanavalin A coated wells, 125I-bFGF with increasing bFGF, Scatchard analysis

B1: EC-FGF receptor, soluble extracellular domain of the human FGF receptor flg5 expressed in a baculovirus system (receptor)
chain: RPSPTLPEQAQPWGAPVEVESFLVHPGDLLQLRCRLRDDVQSINWLRDGVQLAESNRTRITGEEVEVQDSVPADSGLYACVTSSPSGSDTTYFSVNVSDALPSSEDDDDDDDSSSEEKETDNTKPNPVAPYWTSPEKMEKKLHAVPAAKTVKFKCPSSGTPNPTLRWLKNGKEFKPDHRIGGYKVRYATWSIIMDSVVPSDKGNYTCIVENEYGSINHTYQLDVVERSPHRPILQAGLPANKTVALGSNVEFMCKVYSDPQPHIQWLKHIEVNGSKIGPDNLPYVQILKTAGVNTTDKEMEVLHLRNVSFEDAGEYTCLAGNSIGLSHHSAWLTVLEALEERPAVMTSPLYLE
- Kd: < 5 nM
